Results on one substance are retold here after US20110091460A1.

In the test the target is interleukin 13 receptor (IL13R) (human). Description: cell-based or functional assay.

A value given as a limit tells only on which side of the number the result lay.

Substance DTIL13 (ligand) registered an IC50, inhibition of Calu-3 cell growth (3H-thymidine proliferation assay, 72 h) of 3.1 nM; an IC50, inhibition of HT-29 cell growth (3H-thymidine proliferation assay, 72 h) of 95 nM; an IC50, inhibition of PC-3 cell growth (3H-leucine proliferation assay, 72 h) of 0.038 nM; an IC50, killing of DU-145 cells (3H-thymidine proliferation assay, 72 h) greater than 100 nM. In addition, the IC50, killing of U87 MG cells (3H-thymidine proliferation assay, 72 h) came out at 10 nM and the IC50, killing of U118 cells (3H-thymidine proliferation assay, 72 h) worked out at 2 nM.
